Experimental data published in paper PMC6644156, “A de novo substitution in BCL11B leads to loss of interaction with transcriptional complexes and craniosynostosis” (Human Molecular Genetics, 2019).
Numbering of substitutions follows the chain as printed. In names and notes the source's numbering stands.

B1: BCL11B: FLAG-BCL11B, wild-type protein expressed in transfected HEK293T cells (protein)
chain: MSRRKQGNPQHLSQRELITPEADHVEAAILEEDEGLEIEEPSGLGLMVGGPDPDLLTCGQCQMNFPLGDILVFIEHKRKQCGGSLGACYDKALDKDSPPPSSRSELRKVSEPVEIGIQVTPDEDDHLLSPTKGICPKQENIAGPCRPAQLPAVAPIAASSHPHSSVITSPLRALGALPPCLPLPCCSARPVSGDGTQGEGQTEAPFGCQCQLSGKDEPSSYICTTCKQPFNSAWFLLQHAQNTHGFRIYLEPGPASSSLTPRLTIPPPLGPEAVAQSPLMNFLGDSNPFNLLRMTGPILRDHPGFGEGRLPGTPPLFSPPPRHHLDPHRLSAEEMGLVAQHPSAFDRVMRLNPMAIDSPAMDFSRRLRELAGNSSTPPPVSPGRGNPMHRLLNPFQPSPKSPFLSTPPLPPMPPGGTPPPQPPAKSKSCEFCGKTFKFQSNLIVHRRSHTGEKPYKCQLCDHACSQASKLKRHMKTHMHKAGSLAGRSDDGLSAASSPEPGTSELAGEGLKAADGDFRHHESDPSLGHEPEEEDEEEEEEEEELLLENESRPESSFSMDSELSRNRENGGGGVPGVPGAGGGAAKALADEKALVLGKVMENVGLGALPQYGELLADKQKRGAFLKRAAGGGDAGDDDDAGGCGDAGAGGAVNGRGGGFAPGTEPFPGLFPRKPAPLPSPGLNSAAKRIKVEKDLELPPAALIPSENVYSQWLVGYAASRHFMKDPFLGFTDARQSPFATSSEHSSENGSLRFSTPPGDLLDGGLSGRSGTASGGSTPHLGGPGPGRPSSKEGRRSDTCEYCGKVFKNCSNLTVHRRSHTGERPYKCELCNYACAQSSKLTRHMKTHGQIGKEVYRCDICQMPFSVYSTLEKHMKKWHGEHLLTNDVKIEQAERS
modifications: left off: FLAG, end not stated, kept
notes: FLAG-BCL11B, wild-type protein expressed in transfected HEK293T cells
B2: BCL11B p.R3S: FLAG-BCL11B p.R3S, patient-derived mutant protein expressed in transfected HEK293T cells (protein, UniProt Q9C0K0 1-894, looked up, variant R3S)
B-cell lymphoma/leukemia 11B: B1 chain with R3S
modifications: FLAG tag
notes: FLAG-BCL11B p.R3S, patient-derived mutant protein expressed in transfected HEK293T cells

Columns and labels:
PRC2 complex = test: Co-immunoprecipitation with PRC2 complex (EZH2) in transfected HEK293T cells; format: binding; details: anti-FLAG co-IP, HEK293T extracts; EZH2 as PRC2 marker
Procedure: (§1) HEK293T cells were transfected with vectors encoding FLAG-BCL11B ([54]), FLAG-BCL11B p.R3S or Myc-SIRT1 using the calcium phosphate method. Transfected cells were harvested in ice-cold phosphate-buffered saline (PBS) 48 h after transfection. Cell suspensions were centrifuged at 2000g for 5 min, followed by lysis under native conditions in buffer containing 20 mM HEPES, pH 7.4, 250 mM NaCl, 2 mM EDTA, 10% glycerol, 0.5% NP-40, 0.1 mM PMSF, 1 μg/mL pepstatin A, 5 μg/mL leupeptin, 10 μM E64, 25 mM NaF, 5 mM […] and 10 mMN-ethylmaleimide. Cells were incubated on ice for 30 min with vortexing every 5 min, followed by sonication on ice to complete lysis and shear DNA. The lysate was cleared by centrifugation, and BCL11B was immunoprecipitated from native extracts with anti-FLAG antibody (Sigma F4042), as previously described ([54]). […] Fluorescent signal was recorded on an Odyssey dual-channel near-infrared imager (LI-COR) and analysed with manufacturer-supplied software (Image Studio, version 2.1).

NuRD complex = test: Co-immunoprecipitation with NuRD complex (MTA2, HDAC2) in transfected HEK293T cells; format: binding; details: anti-FLAG co-IP, HEK293T extracts; MTA2 and HDAC2 as NuRD markers
Procedure: as §1

SIRT1 = test: Co-immunoprecipitation with SIRT1 in transfected HEK293T cells; format: binding; details: anti-FLAG co-IP, HEK293T extracts; Myc-SIRT1
Procedure: as §1

HEK293T cells = test: Immunocytochemistry (expression and nuclear localization) in HEK293T cells; format: cell-based; details: 48 h after transfection, anti-BCL11B and DAPI
Procedure: HEK293T cells were grown on 0.1% gelatin-coated glass coverslips in 24-well plates seeded at 25 000 cells/well for 24 h prior to transfection with vectors encoding FLAG-BCL11B or FLAG-BCL11B p.R3S. Forty-eight hours after transfection, cells were washed twice with PBS, fixed in 4% paraformaldehyde in PBS for 10 min at room temperature, permeabilized with 0.3% Triton X-100/PBS for 10 min and washed twice with 0.1% Tween/PBS. The fixed and permeabilized cells were then prepared for immunocytochemistry by blocking for 1 h in 10% foetal bovine serum (FBS) in PBS, incubating for 4 h with rat anti-BCL11B monoclonal antibody (Abcam ab18465, 0.25 μg/ml) in 10% FBS/PBS, then incubating for 1.5 h with an anti-rat Cy3-conjugated secondary antibody (Jackson ImmunoResearch Laboratories, 1:500 dilution), followed by a final incubation in 10 μg/ml DAPI in PBS for 10 min. Cells were washed twice with 0.1% Tween/PBS between each immunocytochemistry step, and all incubations were conducted at room temperature. Cells were then washed twice with deionized water, followed by step-wise dehydration with 70% ethanol, 100% ethanol and xylene. Coverslips were then mounted on glass slides with DPX (VWR), dried overnight and stored at 4°C in the dark. Fluoromicrographs were obtained using a Zeiss microscope with appropriate filters and a 63× oil-immersion objective. […]

| Molecule | interaction with PRC2 complex (PRC2 complex) | interaction with NuRD complex (NuRD complex) | interaction with SIRT1 (SIRT1) | expression and nuclear localization (HEK293T cells) |
| --- | --- | --- | --- | --- |
| B1 | demonstrated herein | – | – | – |
| B2 | does not interact with the NuRD or PRC2 complexes | does not interact with the NuRD or PRC2 complexes | did not alter interaction of the protein with the class III histone deacetylase SIRT1 | well expressed and localized in the nucleus in a manner that was indistinguishable from wild-type protein |
